Laboratory results published in publication PMC6262872, “DARPins recognize mTFP1 as novel reagents for in vitro and in vivo protein manipulations” (Biology Open, 2018).

Target: T1, monomeric teal fluorescent protein 1 (mTFP1), N-terminally hexa-His-SBP-tagged
T1 construct: mTFP1, engineered monomeric teal fluorescent protein (Ai et al., 2006); PDB 2HQK is the cited mTFP1 structure; also called SBP-tagged mTFP1; source: E. coli BL21(DE3), purified (Ni-NTA)
Test: fluorescence polarisation; fluorescence anisotropy; constant 15 nM mTFP1 titrated with a dilution series of DARPin; non-linear fit
Details: both partners purified

Kd: ~88 nM
B1: DARPin 1238_G01 (N-terminal His8, C-terminal FLAG) (designed binder)
chain: GSDLGKKLLEAARAGQDDEVRILMANGADVNAEDWMGATPLHLAAQSGHLEIVEVLLKTGADVNAHDAFGWTPLHLAASQGHLEIVEVLLKAGADVNATDMVGRTPLHLAARRGHLEIVEVLLKHGADVNAQDKFGKTPFDLAIDNGNEDIAEVLQKAAKLN
modifications: N-terminal MRGS-His8 and C-terminal FLAG tags left out; the GP cloning residues of the crystal construct are also left out
